Each binder was assayed against T1, human CD137 ECD-mIgG2a (human) (assay: SPR, Fc-fusion VH captured).
T1 construct: ECD 24-183 of huCD137 fused to mouse IgG2a Fc; also called huCD137-mIgG2a; huCD137
T1 sequence (chain, as listed by the source limits assumed): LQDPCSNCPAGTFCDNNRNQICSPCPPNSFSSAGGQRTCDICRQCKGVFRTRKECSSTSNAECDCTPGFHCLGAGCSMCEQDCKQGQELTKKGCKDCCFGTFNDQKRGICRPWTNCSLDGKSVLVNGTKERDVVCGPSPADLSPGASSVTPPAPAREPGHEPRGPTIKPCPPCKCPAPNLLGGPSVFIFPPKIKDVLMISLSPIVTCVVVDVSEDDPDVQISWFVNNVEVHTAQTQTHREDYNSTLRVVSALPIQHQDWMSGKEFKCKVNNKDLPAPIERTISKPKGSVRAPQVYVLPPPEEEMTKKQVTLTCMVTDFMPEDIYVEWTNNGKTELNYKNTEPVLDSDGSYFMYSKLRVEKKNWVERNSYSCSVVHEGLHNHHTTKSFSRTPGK
Description: Characterization of anti-huCD137 VH domain antibodies were made by SPR assays using BIAcore™ T-200 (GE Life Sciences). Briefly, anti-human IgG (Fc) antibody was immobilized on an activated CM5 biosensor chip (Cat.: BR100839, GE Life Sciences). Anti-huCD137 domain antibodies were flowed over the chip surface and captured by anti-human IgG (Fc) antibody. […] The equilibrium dissociation constant (KD) was calculated as the ratio koff/kₒₙ.
Affinity comparison on CD137 affinity matured variants was made by SPR assays using BIAcore™ T-200 (GE Life Sciences) and flow cytometry as described.

Row | Kd [nM] | Binder
1 | 87.7 | BGA-7916-mutFc (Fc fusion) EVQLLESGGGLVQPGGSLRLSCAASGFTVSAEDVGWVRQAPGKGLEWVSAILDSGGSTYYAESVKGRFTISRDNAKNTLYLQMSSLRAEDTAVYYCARVVYHAGGGVTYDTRGQGTQVTVSSGGGGSDKTHTCPPCPAPPAAGPSVFLFPPKPKDTLMISRTPEVTCVVVDVSHEDPEVKFNWYVDGVEVHNAKTKPREEQYNSTYRVVSVLTVLHQDWLNGKEYKCKVSNKALAAPIEKTISKAKGQPREPQVYTLPPSREEMTKNQVSLTCLVKGFYPSDIAVEWESNGQPENNYKTTPPVLDSDGSFFLYSKLTVDKSRWQQGNVFSCSVMHEALHNHYTQKSLSLSPGK
2 | 190 | BGA-9468-mutFc (Fc fusion) EVQLLESGGGLVQPGGSLRLSCAASGFTVSAEDVGWVRQAPGKGLEWVSAILDSGGSTYYAESVKGRFTISRDNAKNTLYLQMSSLRAEDTAVYYCARVVYHSGGGVTFDLRGQGTQVTVSSGGGGSDKTHTCPPCPAPPAAGPSVFLFPPKPKDTLMISRTPEVTCVVVDVSHEDPEVKFNWYVDGVEVHNAKTKPREEQYNSTYRVVSVLTVLHQDWLNGKEYKCKVSNKALAAPIEKTISKAKGQPREPQVYTLPPSREEMTKNQVSLTCLVKGFYPSDIAVEWESNGQPENNYKTTPPVLDSDGSFFLYSKLTVDKSRWQQGNVFSCSVMHEALHNHYTQKSLSLSPGK
3 | 93.4 | BGA-8425-mutFc (Fc fusion) EVQLLESGGGLVQPGGSLRLSCAASGFTLSAEDVGWVRQAPGKGLEWVSAILDSGGSTYYAESVKGRFTISRDNAKNTLYLQMSSLRAEDTAVYYCARVVYHAGGGVTYDYRGQGTQVTVSSGGGGSDKTHTCPPCPAPPAAGPSVFLFPPKPKDTLMISRTPEVTCVVVDVSHEDPEVKFNWYVDGVEVHNAKTKPREEQYNSTYRVVSVLTVLHQDWLNGKEYKCKVSNKALAAPIEKTISKAKGQPREPQVYTLPPSREEMTKNQVSLTCLVKGFYPSDIAVEWESNGQPENNYKTTPPVLDSDGSFFLYSKLTVDKSRWQQGNVFSCSVMHEALHNHYTQKSLSLSPGK
4 | 151 | BGA-9442-mutFc (Fc fusion) EVQLLESGGGLVQPGGSLRLSCAASGFTISAEDVGWVRQAPGKGLEWVSAILDSGGSTYYAESVKGRFTISRDNAKNTLYLQMSSLRAEDTAVYYCARYVYHAGGGVTFDLRGQGTQVTVSSGGGGSDKTHTCPPCPAPPAAGPSVFLFPPKPKDTLMISRTPEVTCVVVDVSHEDPEVKFNWYVDGVEVHNAKTKPREEQYNSTYRVVSVLTVLHQDWLNGKEYKCKVSNKALAAPIEKTISKAKGQPREPQVYTLPPSREEMTKNQVSLTCLVKGFYPSDIAVEWESNGQPENNYKTTPPVLDSDGSFFLYSKLTVDKSRWQQGNVFSCSVMHEALHNHYTQKSLSLSPGK

Further lines, the binder ahead of its results:

Row | Binder | Kd [nM]
5 | BGA-3285-mutFc (Fc fusion) EVQLLESGGGLVQPGGSLRLSCAASGFTISAEDVGWVRQAPGKGLEWVSAILDFGGSTYYAESVKGRFTISRDNAKNTLYLQMSSLRAEDTAVYYCARVVYHAGGGVTFDTRGQGTQVTVSSGGGGSDKTHTCPPCPAPPAAGPSVFLFPPKPKDTLMISRTPEVTCVVVDVSHEDPEVKFNWYVDGVEVHNAKTKPREEQYNSTYRVVSVLTVLHQDWLNGKEYKCKVSNKALAAPIEKTISKAKGQPREPQVYTLPPSREEMTKNQVSLTCLVKGFYPSDIAVEWESNGQPENNYKTTPPVLDSDGSFFLYSKLTVDKSRWQQGNVFSCSVMHEALHNHYTQKSLSLSPGK | 186
6 | BGA-3849-mutFc (Fc fusion) EVQLLESGGGLVQPGGSLRLSCAASGFTLSHEDVGWVRQAPGKGLEWVSAILDSGGSTYYAESVKGRFTISRDNAKNTLYLQMSSLRAEDTAVYYCARYVYHAGGGVTFDTRGQGTQVTVSSGGGGSDKTHTCPPCPAPPAAGPSVFLFPPKPKDTLMISRTPEVTCVVVDVSHEDPEVKFNWYVDGVEVHNAKTKPREEQYNSTYRVVSVLTVLHQDWLNGKEYKCKVSNKALAAPIEKTISKAKGQPREPQVYTLPPSREEMTKNQVSLTCLVKGFYPSDIAVEWESNGQPENNYKTTPPVLDSDGSFFLYSKLTVDKSRWQQGNVFSCSVMHEALHNHYTQKSLSLSPGK | 76.3
7 | BGA-3953-mutFc (Fc fusion) EVQLLESGGGLVQPGGSLRLSCAASGFTVSAEDVGWVRQAPGKGLEWVSAILDSGGSTYYAESVKGRFTISRDNAKNTLYLQMSSLRAEDTAVYYCARIVYHAGGGVTFDTRGQGTQVTVSSGGGGSDKTHTCPPCPAPPAAGPSVFLFPPKPKDTLMISRTPEVTCVVVDVSHEDPEVKFNWYVDGVEVHNAKTKPREEQYNSTYRVVSVLTVLHQDWLNGKEYKCKVSNKALAAPIEKTISKAKGQPREPQVYTLPPSREEMTKNQVSLTCLVKGFYPSDIAVEWESNGQPENNYKTTPPVLDSDGSFFLYSKLTVDKSRWQQGNVFSCSVMHEALHNHYTQKSLSLSPGK | 48.3
8 | BGA-5385-mutFc (Fc fusion) EVQLLESGGGLVQPGGSLRLSCAASGFTLSAEDVGWVRQAPGKGLEWVSAILDHGGSTYYAESVKGRFTISRDNAKNTLYLQMSSLRAEDTAVYYCARVIYHAGGGVTYDYRGQGTQVTVSSGGGGSDKTHTCPPCPAPPAAGPSVFLFPPKPKDTLMISRTPEVTCVVVDVSHEDPEVKFNWYVDGVEVHNAKTKPREEQYNSTYRVVSVLTVLHQDWLNGKEYKCKVSNKALAAPIEKTISKAKGQPREPQVYTLPPSREEMTKNQVSLTCLVKGFYPSDIAVEWESNGQPENNYKTTPPVLDSDGSFFLYSKLTVDKSRWQQGNVFSCSVMHEALHNHYTQKSLSLSPGK | 100
9 | BGA-7746-mutFc (Fc fusion) EVQLLESGGGLVQPGGSLRLSCAASGFTVSAEDVGWVRQAPGKGLEWVSAILDFGGSTYYAESVKGRFTISRDNAKNTLYLQMSSLRAEDTAVYYCARVVYHAGGGVTFDTRGQGTQVTVSSGGGGSDKTHTCPPCPAPPAAGPSVFLFPPKPKDTLMISRTPEVTCVVVDVSHEDPEVKFNWYVDGVEVHNAKTKPREEQYNSTYRVVSVLTVLHQDWLNGKEYKCKVSNKALAAPIEKTISKAKGQPREPQVYTLPPSREEMTKNQVSLTCLVKGFYPSDIAVEWESNGQPENNYKTTPPVLDSDGSFFLYSKLTVDKSRWQQGNVFSCSVMHEALHNHYTQKSLSLSPGK | 193
10 | BGA-4988-mutFc (Fc fusion) EVQLLESGGGLVQPGGSLRLSCAASGFTVSAEDVGWVRQAPGKGLEWVSAILDRGGSTYYAESVKGRFTISRDNAKNTLYLQMSSLRAEDTAVYYCARVVYHAGGGVTYDTRGQGTQVTVSSGGGGSDKTHTCPPCPAPPAAGPSVFLFPPKPKDTLMISRTPEVTCVVVDVSHEDPEVKFNWYVDGVEVHNAKTKPREEQYNSTYRVVSVLTVLHQDWLNGKEYKCKVSNKALAAPIEKTISKAKGQPREPQVYTLPPSREEMTKNQVSLTCLVKGFYPSDIAVEWESNGQPENNYKTTPPVLDSDGSFFLYSKLTVDKSRWQQGNVFSCSVMHEALHNHYTQKSLSLSPGK | 1030

Each binder was assayed against T1, human CD137 ECD-mIgG2a (assay: SPR, A-CEAxCD137 format).

Row | Kd [nM] | Binder
11 | 798 | Format A BGA-3285 (bispecific antibody, human IgG1, kappa) heavy: QVQLVQSGAEVKKPGASVKVSCKASGYIFTSYYLHWVRQAPGQGLEWIGYINPQTGKTSYAQKFQGRVTMTRDTSTSTVYMELSSLRSEDTAVYYCAREYGNYNYPLDYWGQGTLVTVSSASTKGPSVFPLAPSSKSTSGGTAALGCLVKDYFPEPVTVSWNSGALTSGVHTFPAVLQSSGLYSLSSVVTVPSSSLGTQTYICNVNHKPSNTKVDKKVEPKSCDKTHTCPPCPAPPAAGPSVFLFPPKPKDTLMISRTPEVTCVVVDVSHEDPEVKFNWYVDGVEVHNAKTKPREEQYNSTYRVVSVLTVLHQDWLNGKEYKCKVSNKALAAPIEKTISKAKGQPREPQVYTLPPSREEMTKNQVSLTCLVKGFYPSDIAVEWESNGQPENNYKTTPPVLDSDGSFFLYSKLTVDKSRWQQGNVFSCSVMHEALHNHYTQKSLSLSPGKGGGGSEVQLLESGGGLVQPGGSLRLSCAASGFTISAEDVGWVRQAPGKGLEWVSAILDFGGSTYYAESVKGRFTISRDNAKNTLYLQMSSLRAEDTAVYYCARVVYHAGGGVTFDTRGQGTQVTVSS light: DIQMTQSPSSLSASVGDRVTITCRASENQYGYLAWYQQKPGKVPKLLIYNYKNLVEGVPSRFSGSGSGTDFTLTISSLQPEDVATYYCQHHLGTPYTFGQGTKVEIKRTVAAPSVFIFPPSDEQLKSGTASVVCLLNNFYPREAKVQWKVDNALQSGNSQESVTEQDSKDSTYSLSSTLTLSKADYEKHKVYACEVTHQGLSSPVTKSFNRGEC
12 | 115 | Format A BGA-3953 (bispecific antibody, human IgG1, kappa) heavy: QVQLVQSGAEVKKPGASVKVSCKASGYIFTSYYLHWVRQAPGQGLEWIGYINPQTGKTSYAQKFQGRVTMTRDTSTSTVYMELSSLRSEDTAVYYCAREYGNYNYPLDYWGQGTLVTVSSASTKGPSVFPLAPSSKSTSGGTAALGCLVKDYFPEPVTVSWNSGALTSGVHTFPAVLQSSGLYSLSSVVTVPSSSLGTQTYICNVNHKPSNTKVDKKVEPKSCDKTHTCPPCPAPPAAGPSVFLFPPKPKDTLMISRTPEVTCVVVDVSHEDPEVKFNWYVDGVEVHNAKTKPREEQYNSTYRVVSVLTVLHQDWLNGKEYKCKVSNKALAAPIEKTISKAKGQPREPQVYTLPPSREEMTKNQVSLTCLVKGFYPSDIAVEWESNGQPENNYKTTPPVLDSDGSFFLYSKLTVDKSRWQQGNVFSCSVMHEALHNHYTQKSLSLSPGKGGGGSEVQLLESGGGLVQPGGSLRLSCAASGFTVSAEDVGWVRQAPGKGLEWVSAILDSGGSTYYAESVKGRFTISRDNAKNTLYLQMSSLRAEDTAVYYCARIVYHAGGGVTFDTRGQGTQVTVSS light: DIQMTQSPSSLSASVGDRVTITCRASENQYGYLAWYQQKPGKVPKLLIYNYKNLVEGVPSRFSGSGSGTDFTLTISSLQPEDVATYYCQHHLGTPYTFGQGTKVEIKRTVAAPSVFIFPPSDEQLKSGTASVVCLLNNFYPREAKVQWKVDNALQSGNSQESVTEQDSKDSTYSLSSTLTLSKADYEKHKVYACEVTHQGLSSPVTKSFNRGEC

From patent US20240190989A1 (BEIGENE SWITZERLAND, published 2024)
